Assay [1] deals with T1, soluble human FcRn (complex of FcRn and beta2-microglobulin) (human, UniProt P55899 24-297; P61769 21-119).
T1 construct: Secreted from HEK293H
In words: Biacore pH 7.0 (Example 9 method).
Method: (§1) The binding between antibody and human FcRn was kinetically analyzed using Biacore T100 (GE Healthcare). An appropriate amount of protein L (ACTIGEN) was immobilized onto Sensor chip CM4 (GE Healthcare) by the amine-coupling method, and the chip was allowed to capture an antibody of interest. Then, diluted FcRn solutions and running buffer as a reference solution were injected to allow for human FcRn to interact with the antibody captured on the sensor chip. The running buffer used comprised 50 mmol/l sodium phosphate, 150 mmol/l NaCl, and 0.05% (w/v) Tween20 (pH 7.0). FcRn was diluted using each buffer. The chip was regenerated using 10 mmol/l glycine-HCl (pH 1.5). Assays were carried out at 25 degrees C.
(§2) KD (M) of each antibody was derived from the sensorgram data using Biacore T100 Evaluation Software (GE Healthcare), which simultaneously fits the association and dissociation phases of the sensorgrams and globally fits all curves in the working set. Sensorgrams were fit to 1:1 binding model, the “Langmuir binding” model, supplied by Biacore T100 Evaluation Software. For some of the binding interactions, KD was derived by nonlinear regression analysis of plots of Req, the equilibrium binding response, versus the log of the analyte concentration using an equilibrium-based approach.

The target in assay [2] is T1, soluble human FcRn (complex of FcRn and …). Put plainly: Biacore pH 7.0 (Example 9 method). The source holds these as a separate data set.
Method: as §1, §2
Assay [3] has the same target. In words: Biacore steady-state, antibody immobilized, pH 7.4, 25C; pH 7.4.
Method: (§3) The antibodies were tested as a test substance after direct immobilization onto Series S Sensor Chip CM5. Using an amino-coupling kit according to the supplier's instruction manual, the antibodies were immobilized onto Sensor Chip so as to secure an immobilization amount of 500 RU. The running buffer used was 50 mmol/l Na-phosphate/150 mmol/l NaCl containing 0.05% (v/v %) Surfactant P20 (pH 6.0).
(§4) With the prepared sensor chips, assay was carried out using as a running buffer, 50 mmol/l Na-phosphate/150 mmol/l NaCl containing 0.05% Surfactant P20 (pH 6.0) or 50 mmol/l Na-phosphate/150 mmol/l NaCl containing 0.05% Surfactant P20 (pH 7.4). Assays were carried out exclusively at 25 degrees C. The diluted human FcRn solutions and running buffer as a reference solution were injected at a flow rate of 5 microliter/min for ten minutes to allow for human FcRn to interact with the antibody on the chip. Next, the running buffer was injected at a flow rate of 5 microliter/min for one minute to monitor the dissociation of FcRn. […]
(§5) The assay results were analyzed using Biacore T100 Evaluation Software (Ver. 2.0.1). By a steady-state affinity method, the dissociation constant (KD) was calculated from the assay results at six different FcRn concentrations.
For assay [4] the target is unchanged. In words: Biacore steady-state, antibody immobilized, pH 6.0, 25C; pH 6.0.
Method: as §3, §4, §5
Assay [5] has the same target. Put plainly: Biacore pH 7.0.
Method: (§6) The binding between antibody and human FcRn was kinetically analyzed using Biacore T100 (GE Healthcare). […] An appropriate amount of protein L (ACTIGEN) was immobilized onto Sensor chip CM4 (GE Healthcare) by the amino coupling method, and the chip was allowed to capture an antibody of interest. Then, diluted FcRn solutions and running buffer (as a reference solution) were injected to allow human FcRn to interact with the antibody captured on the sensor chip. The running buffer used comprised 50 mmol/l sodium phosphate, 150 mmol/l NaCl, and 0.05% (w/v) Tween20 (pH 7.0). FcRn was diluted using each buffer. The chip was regenerated using 10 mmol/l glycine-HCl (pH 1.5). Assays were carried out exclusively at 25 degrees C. The association rate constant ka (1/Ms) and dissociation rate constant kd (1/s), both of which are kinetic parameters, were calculated based on the sensorgrams obtained in the assays, and KD (M) of each antibody for human FcRn was determined from these values. Each parameter was calculated using Biacore T100 Evaluation Software (GE Healthcare).
Assay [6] shares this target. Put plainly: Biacore steady-state, antibody immobilized, pH 6.0, 25C.
Method: as §3, §4, §5
The target is the same in assay [7]. In words: Biacore steady-state, antibody immobilized, pH 7.4, 25C.
Method: as §3, §4, §5
Assay [8] has the same target. In words: Biacore pH 7.0. The source holds these as a separate data set.
Method: as §6

T1 sequence (P55899 24-297 limits assumed, chain 1 of 2): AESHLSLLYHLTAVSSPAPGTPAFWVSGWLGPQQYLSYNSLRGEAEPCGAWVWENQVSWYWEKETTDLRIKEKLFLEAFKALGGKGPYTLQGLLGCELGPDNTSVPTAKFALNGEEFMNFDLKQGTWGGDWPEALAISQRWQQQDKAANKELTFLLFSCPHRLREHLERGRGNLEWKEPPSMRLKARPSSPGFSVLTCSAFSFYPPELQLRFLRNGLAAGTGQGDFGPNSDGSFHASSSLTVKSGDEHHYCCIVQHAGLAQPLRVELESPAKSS
T1 sequence (P61769 21-119 limits assumed, chain 2 of 2): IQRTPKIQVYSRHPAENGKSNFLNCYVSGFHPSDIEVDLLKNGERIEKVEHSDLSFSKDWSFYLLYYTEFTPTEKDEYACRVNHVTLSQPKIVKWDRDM

B1: VH3/L (WT)-M73 (antibody)
heavy: QVQLQESGPGLVKPSETLSLTCAVSGHSISHDHAWSWVRQPPGEGLEWIGFISYSGITNYNPSLQGRVTISRDNSKNTLYLQMNSLRAEDTAVYYCARSLARTTAMDYWGEGTLVTVSSASTKGPSVFPLAPSSKSTSGGTAALGCLVKDYFPEPVTVSWNSGALTSGVHTFPAVLQSSGLYSLSSVVTVPSSNFGTQTYTCNVDHKPSNTKVDKTVERKSCVECPPCPAPPVAGPSVFLFPPKPKDTLMISRTPEVTCVVVDVSQEDPEVQFNWYVDGVEVHNAKTKPREEQFNSTFRVVSVLTVVHQDWLNGKEYKCKVSNKGLPAPIEKTISKTKGQPREPQVYTLPPSQEEMTKNQVSLTCLVKGFYPSDIAVEWESNGQPENNYKTTPPMLDSDGSFFLYSKLTVDKSRWQEGNVFSCSVMHEALHAHYTQKSLSLSP
light: not shown
notes: copies: 2 + 2
In the case of B1, the Kd in assay [1] and in assay [2] was 14 µM throughout.

B2: Fv4-IgG1-v1 (antibody)
heavy: QVQLQESGPGLVKPSETLSLTCAVSGHSISHDHAWSWVRQPPGEGLEWIGFISYSGITNYNPSLQGRVTISRDNSKNTLYLQMNSLRAEDTAVYYCARSLARTTAMDYWGEGTLVTVSSASTKGPSVFPLAPSSKSTSGGTAALGCLVKDYFPEPVTVSWNSGALTSGVHTFPAVLQSSGLYSLSSVVTVPSSSLGTQTYICNVNHKPSNTKVDKKVEPKSCDKTHTCPPCPAPELLGGPSVFLFPPKPKDTLYITREPEVTCVVVDVSHEDPEVKFNWYVDGVEVHNAKTKPREEQYNSTYRVVSVLTVLHQDWLNGKEYKCKVSNKALPAPIEKTISKAKGQPREPQVYTLPPSRDELTKNQVSLTCLVKGFYPSDIAVEWESNGQPENNYKTTPPVLDSDGSFFLYSKLTVDKSRWQQGNVFSCSVMHEALHNHYTQKSLSLSP
light: DIQMTQSPSSLSASVGDSVTITCQASTDISSHLNWYQQKPGKAPELLIYYGSHLLSGVPSRFSGSGSGTDFTFTISSLEAEDAATYYCGQGNRLPYTFGQGTKVEIERTVAAPSVFIFPPSDEQLKSGTASVVCLLNNFYPREAKVQWKVDNALQSGNSQESVTEQDSKDSTYSLSSTLTLSKADYEKHKVYACEVTHQGLSSPVTKSFNRGEC
notes: copies: 2 + 2
For the molecule B2, the results for the Kd in assay [3] and in assay [4] were 36.6 µM and 0.32 µM, respectively.

B3: IgG1-F163 (antibody)
heavy: QVQLQESGPGLVKPSETLSLTCAVSGHSISHDHAWSWVRQPPGEGLEWIGFISYSGITNYNPSLQGRVTISRDNSKNTLYLQMNSLRAEDTAVYYCARSLARTTAMDYWGEGTLVTVSSASTKGPSVFPLAPSSKSTSGGTAALGCLVKDYFPEPVTVSWNSGALTSGVHTFPAVLQSSGLYSLSSVVTVPSSSLGTQTYICNVNHKPSNTKVDKKVEPKSCDKTHTCPPCPAPELLGGPSVFLFPPKPKDTLWISRTPEVTCVVVDVSHEDPEVKFNWYVDGVEVHNAKTKPREEQYNSTYRVVSVLTVLHQDWLNGKEYKCKVSNKALPAPIEKTISKAKGQPREPQVYTLPPSRDELTKNQVSLTCLVKGFYPSDIAVEWESNGQPENNYKTTPPVLDSDGSFFLYSKLTVDKSRWQQGNVFSCSVFHEALHYHYTQKSLSLSP
light: not shown
notes: copies: 2 + 2
Take B3: in assay [5], the Kd came to 0.35 µM.

B4: Fv4-IgG1-v2 (antibody)
heavy: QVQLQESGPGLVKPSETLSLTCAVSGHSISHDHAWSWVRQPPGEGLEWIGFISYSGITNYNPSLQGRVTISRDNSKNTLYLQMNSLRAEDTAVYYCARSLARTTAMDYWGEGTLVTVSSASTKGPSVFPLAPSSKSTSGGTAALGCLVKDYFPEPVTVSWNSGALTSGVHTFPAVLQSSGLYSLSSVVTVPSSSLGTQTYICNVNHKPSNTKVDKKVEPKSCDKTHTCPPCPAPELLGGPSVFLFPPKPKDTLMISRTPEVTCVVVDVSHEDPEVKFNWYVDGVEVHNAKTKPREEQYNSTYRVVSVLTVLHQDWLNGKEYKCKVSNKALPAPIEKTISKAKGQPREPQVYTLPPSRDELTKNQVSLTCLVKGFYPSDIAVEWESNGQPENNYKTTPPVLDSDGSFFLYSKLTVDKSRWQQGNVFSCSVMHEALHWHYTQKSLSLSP
light: DIQMTQSPSSLSASVGDSVTITCQASTDISSHLNWYQQKPGKAPELLIYYGSHLLSGVPSRFSGSGSGTDFTFTISSLEAEDAATYYCGQGNRLPYTFGQGTKVEIERTVAAPSVFIFPPSDEQLKSGTASVVCLLNNFYPREAKVQWKVDNALQSGNSQESVTEQDSKDSTYSLSSTLTLSKADYEKHKVYACEVTHQGLSSPVTKSFNRGEC
notes: copies: 2 + 2
With B4, the Kd turned out to be 0.11 µM in assay [6] and 11 µM in assay [7].

B5: IgG1-F455 (antibody)
heavy: QVQLQESGPGLVKPSETLSLTCAVSGHSISHDHAWSWVRQPPGEGLEWIGFISYSGITNYNPSLQGRVTISRDNSKNTLYLQMNSLRAEDTAVYYCARSLARTTAMDYWGEGTLVTVSSASTKGPSVFPLAPSSKSTSGGTAALGCLVKDYFPEPVTVSWNSGALTSGVHTFPAVLQSSGLYSLSSVVTVPSSSLGTQTYICNVNHKPSNTKVDKKVEPKSCDKTHTCPPCPAPELLGGPSVFLFPPKPKDTLMISRTVEVTCVVVDVSHEDPEVKFNWYVDGVEVHNAKTKPREEQYNSTYRVVSVLQVLHQDWLNGKEYKCKVSNKALPAPIEKTISKAKGQPREPQVYTLPPSRDELTKNQVSLTCLVKGFYPSDIAVEWESNGQPENNYKTTPPVLDSDGSFFLYSKLTVDKSRWQQGNVFSCSVYHEALHYHYTQKSLSLSP
light: not shown
notes: copies: 2 + 2
B5 gave a Kd in assay [8] of 0.025 µM.

For the origin of these results see US20130131319A1 (Chugai, published 2013).
